B1: Double-stranded RNA-specific adenosine deaminase, residues 296 to 358; numbered along this chain, P55265 (parent)
chain: MAEIKEKICDYLFNVSDSSALNLAKNIGLTKARDINAVLIDMERQGDVYRQGTTPPIWHLTDK

Variants of: B1
Experiment: abundance fitness (aPCA) (normalised: wild type 0, dead -1); higher = more abundant; growth selection in yeast, the domain comes from the species named
Details: Homo sapiens

Abundance fitness, by site and new letter:
S16: Q -0.124; C -0.25; K 0.206; D -0.342; N -0.006; V -0.249; T -0.407; M -0.379; W -0.514; A -0.018; I -0.543; L -0.525; H -0.108; Y -0.684; P -0.1
D10: Y -0.453
L12: F -0.727; S -0.295; Q -0.512; W -1.01; T -0.99; H -0.46; M -0.82; C -1.02; A -0.481; G -0.441; I -0.69; K -0.95; R -0.367; Y -0.044; D -0.706; V -0.669; E -0.115
Y11: S -0.255; N -0.407; F -0.056; A -0.126; D -0.488; E -0.035; I -0.214; M -0.429; Q -0.204; T -0.341; R -0.376; K -0.256; P -0.175; V -0.359; C -0.22; G -0.391
N26: V 0.044; G -0.001; I -0.271; D -0.539; A 0.189; P -0.629; M -0.328; C -0.338; K -0.057; L -0.429; F -0.328; S -0.103; Q 0.009; H 0.215; R -0.202; E 0.075; T -0.403; W -0.327; Y -0.114
F13: Q 0.541; Y 0.079; S 0.403; K 0.538; A 0.543; W -0.051; E 0.383; C 0.19; H 0.1; I 0.142; N 0.366; P -0.216; V -0.061; R 0.577; T 0.227; G 0.335; M 0.339
I27: S -0.435; V -0.162; A -0.471; R -0.584; N -0.538; E -0.274; H -0.548; P -0.452; M -0.359; Y -0.944; G -0.611; D -0.277; L -0.01; K -0.324; Q -0.507; W -0.818
G28: F -0.796; K -0.229; I -1.01; N -0.43; H -0.508; E -0.15; Y -0.982; P -0.234; D -0.186; S -0.474; A -0.453; R -0.802; V -0.713; L -0.97; W -0.886; M -0.805; Q -0.606; T -0.655
D17: T -0.501; M -0.499; A 0.405
T30: F -0.246; M -0.204; S 0.107; D 0.413; V -0.201; A 0.128; E 0.361; G -0.054; I -0.299; C -0.002; P -0.199; N 0.127; H -0.252; Y 0.141; L -0.312; R -0.352; Q -0.021
L21: G 0.009; N 0.067; S 0.05; M 0.029; H -0.046; A 0.263; Q 0.158; C -0.136; I -0.044; R -0.02; Y -0.111; W -0.071; D 0.339; T 0.125; E 0.476; V -0.015
N14: M -0.189; E 0.102; S 0.017; H 0.085; R 0.285; K 0.434; T 0.086; P -0.658; W -0.426; C -0.215; G -0.236; Q 0.008; V -0.31; F -0.385; D -0.312; A -0.014; L -0.121; Y 0.045
K31: I -1.14; Q 0.097; F -0.695; E 0.251; C 0.237; W -0.635; P 0.041; L -0.53; S 0.285; H 0.367; R -0.006; T 0.066; A -0.098; D 0.36; N 0.144; G -0.049; Y 0.173; V -0.67
N22: W -0.609; M -0.493; G -0.314; R -0.682; T -0.141; I -0.339; V -0.18; D 0.004; K -0.424; L -0.479; Q 0.162; Y -0.386; E 0.165; P -0.219; A -0.297; S -0.323; H -0.117
L29: Q -0.026; A -0.103; P -0.336; H -0.325; S -0.17; C -0.125; F -0.107; D 0.035; N 0.041; G 0.006; Y -0.136; W -0.633; T -0.167; E 0.045; I -0.025; K -0.54; V -0.1; R -0.356; M 0.154
S19: T -0.236; Y -0.5
A24: G -0.495; C -0.179; I -0.552; P -0.49; N -0.722; W -0.707; F -0.566; M -0.418; K -0.616; D -0.838; V -0.58; R -0.544; H -0.488; Y -0.406; L -0.513; Q -0.171; T -0.276; E -0.447
S18: H -0.366; P -0.83; K -0.549; I -1.01; D -0.461; M -0.684; N -0.607; W -0.535; F -0.816; E -0.49; V -0.699; Y -0.698; R -0.721; Q -0.481; T -0.388
V15: S -0.137; Y -0.202; R -0.231; F 0.045; P -0.64; M -0.203; D -0.463; A -0.147; Q -0.288; E -0.025; G -0.377; W -0.213; T -0.392; C -0.365; I -0.2; H 0.489; K -0.089
L23: P -0.299; R -0.592; S -0.424; I 0.372; H -0.453; D -0.313; F -1.03; Y -0.678; T -0.421; V -0.316; W -0.682; E -0.329; C -0.474; A -0.368; M -0.374; G -0.403; Q -1.2; K -0.531
A20: S -0.228; P -0.673; Y -0.901; E -0.216; N -0.481; L -0.42; G -0.45; Q -0.472; K -0.606; T -0.295; V -0.446; F -0.311; D -0.64; W -0.627; R -0.615; I -0.68; H -0.578
K25: A -0.213; N -0.234; W -0.82; Q -0.024; D -0.141; T -0.32; C -0.36; P -0.928; L -0.404; Y -0.626; H -0.083; E -0.124; M -0.282; S -0.542; I -0.578
A32: F -0.091; C -0.121; H -0.204; G -0.091; E 0.159

— the Human Domainome abundance scans (Beltran et al. 2025)
